Reference: patent publication KR20210097819A (dated 2021)

Target: T1, human TNFα N-his trimer (human, UniProt P01375 77-233)
T1 construct: Captured on an NTA sensor chip through the N-terminal His tag for Biacore; also called His-tagged TNF (made by ESBATech); not shown: N-terminal His tag
Test: SPR (BIAcore T100), His-tagged TNFα captured on an NTA chip, scFv as analyte

T1 sequence (P01375 77-233 limits assumed): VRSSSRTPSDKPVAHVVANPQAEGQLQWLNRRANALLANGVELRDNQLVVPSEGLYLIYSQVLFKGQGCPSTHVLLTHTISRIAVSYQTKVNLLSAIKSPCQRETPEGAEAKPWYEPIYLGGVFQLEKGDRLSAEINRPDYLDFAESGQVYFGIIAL

Kd: 0.25 nM
B1: EP43max (scFv)
chain: EIVMTQSPSTLSASVGDRVIIKCQASQSISDWLAWYQQKPGKAPKLLIYGASRLASGFPSRFSGSGSGAEFTLTISGLEPADFATYYCQQGWSDSYVDNLFGQGTKLTVLGGGGGSGGGGSGGGGSGGGGSEVQLVESGGGLVQPGGSLRLSCTVSGFSLSSGAMSWVRQAPGKGLEWVGVIISSGATYYASWAKGRFTISKDTSKNTVYLQMNSLRAEDTAVYYCARGGPDDSNSMGTFDPWGQGTLVTVSS
